How the values were obtained:
[1] = target: T1, CD27 overexpressed on HEK293F cells (UniProt P26842 20-260, limits assumed); test: flow cytometry, HEK293F cells expressing the receptor [Cont.]
T1 construct: whole, on cells
T1 sequence (looked up): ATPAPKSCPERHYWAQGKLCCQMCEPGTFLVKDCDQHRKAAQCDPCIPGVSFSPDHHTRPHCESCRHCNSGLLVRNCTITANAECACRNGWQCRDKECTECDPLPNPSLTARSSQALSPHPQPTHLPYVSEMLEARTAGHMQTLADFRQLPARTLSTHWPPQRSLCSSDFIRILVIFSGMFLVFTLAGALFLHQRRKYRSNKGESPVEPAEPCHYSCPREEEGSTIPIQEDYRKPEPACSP
Method: (§1) The selectivity of antibodies for CD137 was evaluated using flow cytometry analysis of their binding ability to members of TNFR superfamily. The TNFRSF receptors including CD137, OX40, CD40, GITR and CD27 were transiently overexpressed on the surface of HEK293F cells. Transfected cells were washed in pre-chilled staining buffer (PBS supplemented with 2% FBS), then incubated with 100 nM test antibodies for 1 hr on ice. […] Samples were washed once with staining buffer prior to analysis by flow cytometry.

[2] = target: T2, OX40 overexpressed on HEK293F cells (UniProt P43489 29-277, limits assumed); test: as above
T2 construct: whole, on cells
T2 sequence (looked up): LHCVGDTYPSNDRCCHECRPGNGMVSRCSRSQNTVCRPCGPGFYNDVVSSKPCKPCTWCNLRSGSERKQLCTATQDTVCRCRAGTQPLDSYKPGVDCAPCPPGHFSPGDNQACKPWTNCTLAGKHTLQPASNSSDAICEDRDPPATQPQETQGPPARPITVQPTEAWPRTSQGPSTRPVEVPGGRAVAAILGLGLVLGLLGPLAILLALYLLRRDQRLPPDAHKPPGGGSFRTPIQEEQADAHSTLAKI
Method: as §1

B1: AG10059 (antibody, human IgG4 S228P, kappa, V domains shown)
VH: EVQLVESGGGLVQPGGSLRLSCAASGYSITSGHYWAWIRQAPGKGLEWVSSISGYGSTTYYADSVKGRFTISRDNSKNTLYLQLNSLRAEDTAVYYCARGGSDAVLGDWFAYWGQGTLVTVSS
VL: DIQLTQSPSSLSASVGDRVTITCRASQGIGSFLAWYQQKPGKAPKLLIYDASNLETGVPSRFSGSGSGTDFTLTISSLQPEDFATYYCQQGYYLWTFGQGTKVEIKR
binding result [1]: no binding (tested: 100 nM (text paragraph 226)) | binding result [2]: no binding (tested: 100 nM (text paragraph 226))
